The results in this text go back to FireProtDB (doi:10.1021/bi9901228).

For the series the following is noted: Homo sapiens; pH 2.7; Thermal; DSC; glycine 0.05 M; reversible: yes; whole UniProt chain shown.

B1: Lysozyme C wild type, P61626 (protein)
chain: MKALIVLGLVLLSVTVQGKVFERCELARTLKRLGMDGYRGISLANWMCLAKWESGYNTRATNYNAGDRSTDYGIFQINSRYWCNDGKTPGAVNACHLSCSALLQDNIADAVACAKRVVRDPQGIRAWVAWRNRCQNRDVRQYVQGCGV
The term Tm denotes the temperature at the midpoint of the melting transition. As for B1, the Tm was determined as 64.9 °C, the “heat capacity change of unfolding” value is 1.58 kcal/mol/K and the “unfolding enthalpy (calorimetric)” value was determined as 114 kcal/mol.
